Test results: the supplement of paper PMC9170038

Test system: MS2 coat protein
Test: apparent KD of MS2 coat protein; designed switch direction (-1 OFF switch, 1 ON switch): -1; higher = weaker reporter binding
Method in brief: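 Designed RNA switches with common flanks were transcribed on Illumina chips by stalled E. coli RNA polymerase and titrated with SNAP-549-labelled MS2 coat protein, from 0.7 or 1.5 nM doubling to 3 µM, in Tris-HCl pH 7.5 buffer with KCl, MgCl2, BSA, DTT, tRNA and Tween-20. Steps lasted 0.8–1.5 h (lowest) to 10–20 min (highest). Titrations ran without input, with 200 uM small-molecule ligand, or with an oligonucleotide input. Normalised cluster fluorescence was curve-fitted, and apparent KD is the per-design median over clusters.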

[1] = input ligand: microRNA oligo, concentration not stated
[2] = Eterna round: R95, input ligand: FMN 200 uM
[3] = Eterna round: R95, input ligand: microRNA oligo, concentration not stated
[4] = Eterna round: R95, input ligand: none

Sequence	apparent KD of MS2 coat protein (input ligand: FMN 200 uM) [nM]	apparent KD of MS2 coat protein (input ligand: none) [nM]	apparent KD of MS2 coat protein [1] [nM]	apparent KD of MS2 coat protein [2] [nM]	apparent KD of MS2 coat protein [3] [nM]	apparent KD of MS2 coat protein [4] [nM]
GAAAAGGUAGAGGAUAUUUCAGAUCAAAGCUGCAAAGAAGGCUGCACAUGAGGAUCACCCAUGUGGUCUUAAAA [Mod of Quesina 8 - Jieux - Exclusion 6] (Eterna round: R97, puzzle: Exclusion 6)	62.3	20.9	–	–	–	–
AGCUGUGGCCGAGGAUAUCUGAAAACUCAAACCGAAAUAUAAUCGGACAUGAGGAUCACCCAUGUAGAGAAGGCGGUCUCAGCA [Eli eng2 - 062] (Eterna round: R96, puzzle: Exclusion NG 2)	–	–	45.7	–	–	–
GAGUAGGGAGGAUAUACGUGCUCAAUCCCGCGAAGCGGGAAACAUGAGGAUCACCCAUGUAGAAGGCCCAUAAA [Inceveus] (puzzle: Exclusion 2)	–	–	–	88.4	171	185
AGACAGUCAGGAUAUACAUGAGGAUCACCCAUGUUAAGAAAAGAAAGGGCAGGAAGAGGUAGAAGGGACAAGAA [JR_Exclu3_Sub032] (puzzle: Exclusion 3)	–	–	–	28.8	28.5	32.8
AAACCUCACAACCGUUAAAACAUGAGGAUCACCCAUGUGCCGUAACGGCGCAUGGUCGAGCUAGGCUCGUCCAUGCA [Zamacelaso] (Eterna round: R96, puzzle: Sensor v2, turn-off variant)	12	15.4	10.2	–	–	–
AGUACUAACACGCAUGUGUUAGUACAAUAAGCUUGUGAAACAUGAGGAUCACCCAUGUCCUCAUAAGCUCGUCUUAU [salish99_TOv2_r3_068] (Eterna round: R96, puzzle: Sensor v3, turn-off variant 2)	14.8	17.2	415	–	–	–
GGCACACAUGUAGGAUAUCUGCACGAUUAGUGCAGAGAAGGACAUGAGGAUCACCCAUGUAAUUAAGAUCAAUUAUUAAGUGCC [ENG1/3-A1] (Eterna round: R96, puzzle: Exclusion NG 1)	468	54.6	50	–	–	–
CUGAACCCGGUAGGAUAUAUUGUGGGCAGGCGUGGAACGACAUGAGGAUCACCCAUGUAAUUUAGGUAGAAGGGCCGAGAGAUU [Excl-NG2-LRO13] (Eterna round: R96, puzzle: Exclusion NG 2)	22.9	37.3	21.7	–	–	–
UCAUGGAAGCAGGAUAUGCUUGUUUAAUUGUUUGCAGAAGGGCUAACAUGAGGAUCACCCAUGUAAGAGGUCUA [JR_E6_Sub063] (puzzle: Exclusion 6)	–	–	–	–	35.3	–
UAUGGUCUUGAGGAUAUACCAGGGUGAGUCCAGGUAGAAGGUAGGACAUGAGGAUCACCCAUGUGACGUAGUGU [Eternabot (L2) Solution 49] (Eterna round: R97, puzzle: Exclusion 6)	434	354	–	–	–	–
CUCCUCAUGGCGCCUAAACACAUGAGGAUCACCCAUGUACAGGCCUUUUGCCGUCUUAUAAUAAAACCGAGGAUGCG [Lainxezabe] (puzzle: Sensor v3, turn-off variant 1)	–	–	–	29.6	223	26.8
AAUACAAGCUAUUGAUCCCACAUGAGGAUCACCCAUGUAUAUGCCCGUGACACGUGCAUGACGAUAGCUCGUCUUAU [Sensor-V1 #60] (Eterna round: R97, puzzle: Sensor, turn-off variant 1)	85.8	102	–	–	–	–
AAAUAGCAUGAGGAUAUCGAAUUAUAUAUAGUACGAGAAGGCAUGACAUGAGGAUCACCCAUGUUUUGUUGGGA [EX6 #1] (Eterna round: R97, puzzle: Exclusion 6)	124	57.5	–	–	–	–
GGGAAAGAGGUAAGGAUAUCCUCCUCGAAAGAGGAGGAGAAGGUACAUGAGGAUCACCCAUGUAAGAAGAAGAG [AK-MS2ROC-r4-Bmoexclusion4-13] (Eterna round: R97, puzzle: Brourd's mod of Exclusion 4)	25	18.6	–	–	–	–
UUUAAUUUUUUUUUUUUACAAGCUUUUUGCUCGUCUUAUACAUGAGGAUCACCCAUGUAAAUGGAAGAUAAAUUAUC [JMF 7] (puzzle: Sensor v3, turn-off variant 2)	–	–	–	16.7	18.1	17.3
UUAUAUAAUGUGAGGAUAUGCUGGUCCUUGGAUCAGCAGAAGGCACAUGAGGAUCACCCAUGUAGUAAAUUUUA [JL bmx4 3.02] (puzzle: Brourd's mod of Exclusion 4)	–	–	–	–	17.9	–
GAUUUACAUGAGGAUCACCCAUGUGAGGAUAUAUUGUUAUUUUUAAUAUUUUUUAGUGGUAGAAGGCGCGUGAU [JR_Exc1_Sub016] (Eterna round: R97, puzzle: Exclusion 1)	24.2	26.9	–	–	–	–

Sequence	apparent KD of MS2 coat protein (input ligand: FMN 200 uM) [nM]	apparent KD of MS2 coat protein (input ligand: none) [nM]	apparent KD of MS2 coat protein [1] [nM]	apparent KD of MS2 coat protein [2] [nM]	apparent KD of MS2 coat protein [3] [nM]	apparent KD of MS2 coat protein [4] [nM]
UUGGUUGUGGUAGGAUAUCCGUUGGAAACCGUCGGAGAAGGACCACAGUCACUGGGUCCUUGUCUGGUGGACUGGAAUCACCAU [pwkr exNG1 F6.15] (Eterna round: R96, puzzle: Exclusion NG 1)	153	184	172	–	–	–
CGACCACAUGUAAACUGACACAUGAGGAUCACCCAUGUCAAGCUACGUUAGACUAAGCUCGCUACUACUCGUCUUAA [Eternabot (L2) Solution 4] (Eterna round: R97, puzzle: Sensor, turn-off variant 1)	66.8	69.8	–	–	–	–
GGUCAGACGGUAGGAUAUCUAUAUCGAGUGACCCUUUCAUAACAUGAGGAUCACCCAUGUCGGUGGGAGAAGGGCCGUACGGCG [salish99_ExNG02_R04_007] (Eterna round: R96, puzzle: Exclusion NG 2)	62.5	42.2	31.6	–	–	–
GCUUGAGCAGGAUAUACAAUGAGCUUGAGAAAUCGAGUUCGACAUGAGGAUCACCCAUGUAGAAGGGUUCGAGU [-27.3, -25 kcal, A 31% 1 and 1bis] (Eterna round: R97, puzzle: Exclusion 2)	38.4	24.3	–	–	–	–
CAGAAACAUGAGGAUCACCCAUGUGAGGAUAUGCGUACGUUGUCCGUAGGCGACGUGCGCAGAAGGCACAAAGG [Mat - Mod of JL D84] (puzzle: Exclusion 1)	–	–	–	–	111	–
AUAAGGCUAGGAUAUGCAUGUGGCACAGCUCAGAAAAUAAGACAUGAGGAUCACCCAUGUAGAAGGAGCAUGCC [EX2 A.30] (Eterna round: R97, puzzle: Exclusion 2)	19.4	16.2	–	–	–	–
ACGAUGACCGAAAGAUGUCAAAAGACAUGAGGAUCACCCAUGUAGGAUAUGGCUACGAAAAGUAGUCAGAAGGACAUGUCAUCA [Omei Exc(NG) 3 A] (Eterna round: R96, puzzle: Exclusion NG 3)	15.1	14.8	12.3	–	–	–
CUGGUCCGAGGAUAUAUUAUGUGAAACAUGAGGAUCACCCAUGUUAUAUGAUGGAUGUAAAUAGAAGGCGGACUAG [JL-ex5-3.14] (puzzle: Exclusion 5)	–	–	–	27.6	36.3	40.3
AGCGUGUUAGGAUAUACACGACACUGGGUAGCGGGUGGAGGGUAGAAGGGACAUGAGGAUCACCCAUGUUCGGG [Ortere] (Eterna round: R97, puzzle: Exclusion 4)	28.5	35	–	–	–	–
ACAUGAGGAUCACCCAUGUCCGGCUGGUCCGUUUCGGCUGUCGAGGAUAUAGUUCGGUGUUCGCGCUAGAAGGCGGGAGCUGGC [Aenatbe mod 60] (Eterna round: R96, puzzle: Exclusion NG 3)	206	114	68.7	–	–	–
AAUUUGUGAGGAUAUCCAAUAUAUGACAUGAGGAUCACCCAUGUUUCCACUCGUACCUCCGGAGAAGGCACUGCAA [Ex5 #38] (Eterna round: R97, puzzle: Exclusion 5)	21.4	23.6	–	–	–	–
AAUUAGUGAGGAUAUUUGAACAGUGGCAGUAGCCAGUGCAUGAAGAAGGCACAUGAGGAUCACCCAUGUUAUAA [EX4 #58] (Eterna round: R97, puzzle: Exclusion 4)	70.5	39.8	–	–	–	–
CAAAGUUGGUAAGGAUAUCCCACAUUAUUCUGACCCGUGCAAGCUACAUGAGGAUCACCCAUGUGGGAGAAGGUGCGUUAAAGA [Design 1] (Eterna round: R96, puzzle: Exclusion NG 2)	93.4	94.3	52	–	–	–
ACACGGCGAGGAUAUACAUGAGGAUCACCCAUGUGUCGGCCGGUACGGUAGCACUAGUGUAGAAGGCGCAUUGG [EX3 #38] (Eterna round: R97, puzzle: Exclusion 3)	28.1	31.1	–	–	–	–
CCCAGAGCGUAAGGAUAUACAUGAGGAUCACCCAUGUCUACAAUAAUAGUACUAUAUGAAGUCGUGUAGAAGGUACGCGCAGGU [Eternabot solution 46] (Eterna round: R96, puzzle: Exclusion NG 2)	–	–	30.7	–	–	–
GAUCACUGAGGAUAUACACAGAUACAAAGUAUCUGACGGUGACAUGAGGAUCACCCAUGUAGAAGGCAGAGGUC [Omei Ex2 B2] (Eterna round: R97, puzzle: Exclusion 2)	360	696	–	–	–	–
CCAUAGGGAGGAUAUCCAAUAUAUGACAUGAGGAUCACCCAUGUUUCCACUCGUACCUCCGGAGAAGGCCCAUAAC [Ex5 #8] (Eterna round: R97, puzzle: Exclusion 5)	24.4	21.4	–	–	–	–
